The results in this text go back to US20190262387A1.

Assay [1] addresses collagen II (thin coating on polystyrene tissue culture plate). Nature of the assay: normalized fluorescence of PEG-fluorescein conjugated peptide on collagen II coated plate after washing; reference is scrambled collagen II binding peptide (FIG. 2I).
The target in assay [2] is collagen I (thin coating on polystyrene tissue culture plate). In words: normalized fluorescence of PEG-fluorescein conjugated peptide on collagen I coated plate after washing; reference is scrambled collagen I binding peptide (FIG. 2D).

No end group written: not given here.

Regarding WYRGRL (also: conjugated to PEG-fluorescein, site not given here) [collagen II binding peptide conjugated to PEG-fluorescein], the normalized fluorescence intensity relative to scrambled peptide (times that of scrambled peptide) in assay [1] was found to be 1.65.
YSFYSDESLQ (also: conjugated to PEG-fluorescein, site not given here) [collagen I binding peptide conjugated to PEG-fluorescein]: the normalized fluorescence intensity relative to scrambled peptide (times that of scrambled peptide) in assay [2] is 1.55.
